Data published in publication PMC11286877.

Target: OLFM4 recombinant protein (SPR) (UniProt Q3UZZ4)
Assay: SPR

Sequence of UniProt Q3UZZ4 (Q3UZZ4 19-505): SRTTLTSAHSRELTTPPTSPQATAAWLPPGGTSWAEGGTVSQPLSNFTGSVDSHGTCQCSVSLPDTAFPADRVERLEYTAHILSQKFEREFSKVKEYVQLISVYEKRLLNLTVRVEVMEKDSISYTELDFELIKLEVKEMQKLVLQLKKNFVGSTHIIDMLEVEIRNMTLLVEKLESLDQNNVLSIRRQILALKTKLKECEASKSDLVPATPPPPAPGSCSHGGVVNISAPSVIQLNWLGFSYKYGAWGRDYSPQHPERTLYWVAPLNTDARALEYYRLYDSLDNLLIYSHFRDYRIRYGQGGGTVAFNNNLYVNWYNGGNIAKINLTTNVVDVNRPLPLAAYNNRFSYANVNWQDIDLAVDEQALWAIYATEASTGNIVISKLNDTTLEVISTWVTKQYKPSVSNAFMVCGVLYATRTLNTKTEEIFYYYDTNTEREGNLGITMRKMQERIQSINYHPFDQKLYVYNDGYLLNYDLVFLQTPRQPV

MTDH protein, extracellular domain (SPR) (from UniProt Q80WJ7 1-48) (domain or fragment)
Kd: 0.0219 nM
